These results are taken from the DeepSol protein solubility set.

This series in a line: soluble on expression in E. coli; label from the status in PepcDB or PDB records.
Take “GMENLGDRLEVVAELSLAPGNITLTPDGRLFLSLHQFYQPEMQVAELTQDGLIPFPPQSGNAIITFDTVLGIKSDGNGIVWMLDNGNQSKSVPKLVAWDTLNNQLSRVIYLPPPITLSNSFVNDLAVDLIHNFVYISDPAPDDKAALIRVDLQTGLAARVLQGYPGIAPEDIDLVIDGVPVQIGQPDGTVIRPHLGVNGIVLDAENEWLYLSPMHSTSMYRIKSADLSNLQLTDAELGSKIERYSEKPICDGISIDKDHNIYVGDLAHSAIGVITSADRAYKLLVTDEKLSWTDSFNFGSDGYLYFDCNQLHHSAPLNAGENISAPPYYIFRLKPLAAGIVGR”: the “soluble on expression in E. coli” value was “soluble”.

Regarding “MSAAADRLNLTSGHLNAGRKRSSSSVSLKAAEKPFKVTVIGSGNWGTTIAKVVAENCKGYPEVFAPIVQMWVFEEEINGEKLTEIINTRHQNVKYLPGITLPDNLVANPDLIDSVKDVDIIVFNIPHQFLPRICSQLKGHVDSHVRAISCLKGFEVGAKGVQLLSSYITEELGIQCGALSGANIATEVAQEHWSETTVAYHIPKDFRGEGKDVDHKVLKALFHRPYFHVSVIEDVAGISICGALKNVVALGCGFVEGLGWGNNASAAIQRVGLGEIIRFGQMFFPESREETYYQESAGVADLITTCAGGRNVKVARLMATSGKDAWECEKELLNGQSAQGLITCKEVHEWLETCGSVEDFPLFEAVYQIVYNNYPMKNLPDMIEELDLHED”, the “soluble on expression in E. coli” value is recorded as “soluble”.

On to “MSSFHATTIFAVQHKGRSAMSGDGQVTFGQAVVMKHTARKVRKLFNGKVLAGFAGSVADAFTLFEKFEAKLEEYNGNLKRAAVELAKEWRSDKVLRKLEAMLIVMNQDTLLLVSGTGEVIEPDDGILAIGSGGNYALAAGRALKKHAGESMSASEIARAALETAGEICVYTNDQIILEELE”, for which the “soluble on expression in E. coli” value is “soluble”.

In the case of “DPEDPAEDIIQTAGTIAHRGADRQDGGWGSGGPKFPQNGRLHALLRAYADGGQEDYLNVVEETLDVMADRGLYDHVGGGFHRYATDQQWAVPHFEKMLYDNAEIPRAFLAGYQAIGSERYASVVRETFEFVQRELQHPDGGFFSTLDAESAPHSESRSDSEQSSGESPRDDPDGETEEGLFYVWTPEQVHDAVDDETDADIFCDYYGVTEQGNFEGATVLAVRKPVPVLAEEYERSEDEITASLQRALNETFEARKDRPRPARDEKVLAGWNGLMIRALAEGAIVLDDQYADVAADALSFVREHLWDADAGRLNRRYKDDDVAIDGYLEDYAFLGRGALTLFEATGDVEHLAFAMDLGQAITEAFWDDEQGTLFFTPTGGESLVARPQELTD”, the “soluble on expression in E. coli” value was “not soluble”.

Take “HAIFERHENDLHCEVPISFATAALGGSIEVPTLEGRVTLKIPAETQTGKVFRLRSKGMKSVRGYGQGDLLCKVVVETPVNLSREQKELLNKLQDSLENAKGTH”: the “soluble on expression in E. coli” value is listed as “not soluble”.

For “MQIKAGLIWMNGAFVPQEEAKTSVLSHALHYGTSVFEGIRAYETAKGPAIFRLKEHVKRFYNSAKVLRMEIPFAPEELEEAIKEVVRRNGYRSCYIRPLAWMGAKALGVNPLPNNPAEVMVAAWEWGAYLGEEAVRKGARLITSSWARFPANVMPGKAKVGGNYVNSALAKMEAVAAGADEALLLDEEGYVAEGSGENLFFVRDGVIYALEHSVNLEGITRDSVIRIAKDLGYEVQVVRATRDQLYMADEVFMTGTAAEVTPVSMIDWRPIGKGTAGPVALRLREVYLEAVTGRRPEYEGWLTYVNGQ”, the “soluble on expression in E. coli” value was “soluble”.

Take “MKIAIIGAGIGGLTAAALLQEQGHTIKVFEKNESVKEIGAGIGIGDNVLKKLGNHDLAKGIKNAGQILSTMTVLDDKDRLLTTVKLKSNTLNVTLPRQTLIDIIKSYVKDDVIFTNHEVTHIDNETDKVTIHFAEQESEAFDLCIGADGIHSKVRQSVNADSKVLYQGYTCFRGLIDDIDLKHPDCAKEYWGRKGRVGIVPLLNNQAYWFITINSKENNHKYSSFGKPHLQAYFNHYPNEVREILDKQSETGILLHNIYDLKPLKSFVYGRTILLGDAAHATTPNMGQGAGQAMEDAIVLVNCFNAYDFEKALQRYDKIRVKHTAKVIKRSRKIGKIAQYRSRLFVAVRNRIMKMMPNALAAGQTKFLYKSKEKLEHHHHHH”: the “soluble on expression in E. coli” value was “soluble”.
